Data: publication PMC11365945

T1: Sh1 (Glycine soja, UniProt I1MNH4 1-230+=TTT+231-511, T232A;internal_change)
T1 sequence: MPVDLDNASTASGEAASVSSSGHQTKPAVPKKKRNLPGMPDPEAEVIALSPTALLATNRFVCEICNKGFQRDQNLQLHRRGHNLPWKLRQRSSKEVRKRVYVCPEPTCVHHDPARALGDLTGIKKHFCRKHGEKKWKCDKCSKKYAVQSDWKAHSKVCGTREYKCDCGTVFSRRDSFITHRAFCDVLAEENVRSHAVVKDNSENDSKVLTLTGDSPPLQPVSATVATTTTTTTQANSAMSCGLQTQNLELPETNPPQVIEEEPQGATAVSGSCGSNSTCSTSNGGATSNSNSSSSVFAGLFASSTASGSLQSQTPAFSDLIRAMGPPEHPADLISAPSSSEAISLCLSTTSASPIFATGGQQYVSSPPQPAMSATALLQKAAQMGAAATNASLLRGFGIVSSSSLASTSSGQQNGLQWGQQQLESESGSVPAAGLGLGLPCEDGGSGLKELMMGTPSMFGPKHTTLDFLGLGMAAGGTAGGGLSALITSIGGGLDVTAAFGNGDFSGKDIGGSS

B1: SHAT1-5 promoter S2-11 (dsDNA)
DNA 1: TTTTAAAATAAAAAAAAAAACAAATAGATATCATGTTATTTTTAAATTATGAAACAAAAT
DNA 2: ATTTTGTTTCATAATTTAAAAATAACATGATATCTATTTGTTTTTTTTTTTATTTTAAAA
B2: SHAT1-5 promoter S2-12 (dsDNA)
DNA 1: AATATATAAAATTCTTGCTTTATCACAAGTCCATTTTGAGGTATTTTTTATTTCTTCGTG
DNA 2: CACGAAGAAATAAAAAATACCTCAAAATGGACTTGTGATAAAGCAAGAATTTTATATATT
B3: SHAT1-5 promoter S2-5 (dsDNA)
DNA 1: TCATGTTATTTTTAAATTATGAAACAAAATAATATATAAAATTCTTGCTTTATCACAAGT
DNA 2: ACTTGTGATAAAGCAAGAATTTTATATATTATTTTGTTTCATAATTTAAAAATAACATGA
B4: SHAT1-5 promoter S2-6 (dsDNA)
DNA 1: CCATTTTGAGGTATTTTTTATTTCTTCGTGTGAAATCTTGTACATTCTTTGGAGATGCTG
DNA 2: CAGCATCTCCAAAGAATGTACAAGATTTCACACGAAGAAATAAAAAATACCTCAAAATGG

Each binder was assayed against T1, Sh1 (assay: EMSA).

Binding result, binds:
B1
B2
B3
B4
